From the supplement of paper PMC5998384

Key:
HeLa Kyoto [1] = test: solubility in G1/S (NP-40 vs SDS abundance) (log2 ratio); higher = more soluble; settings: cell cycle stage: G1/S
HeLa Kyoto [2] = test: melting temperature (median over replicates), in situ; higher = more thermally stable
HeLa Kyoto [3] = test: solubility change mitosis vs G1/S (difference of NP-40 vs SDS log2 ratios) (log2 ratio difference); higher = more soluble in mitosis
HeLa Kyoto [4] = test: thermal stability score vs G1/S (z-score of summed log2 fold changes over temperatures); higher = more thermally stable than in G1/S
[5] = cell cycle stage: early G1 (4.5 h after nocodazole release)
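Wherever melting temperature (median over replicates), in situ is given: HeLa Kyoto cells synchronized by double thymidine or nocodazole block, proteins quantified by TMT10plex mass spectrometry, three independent biological replicates.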
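Wherever solubility change mitosis vs G1/S (difference of NP-40 vs SDS log2 ratios) is given: synchronized HeLa Kyoto cells (double thymidine block for G1/S, nocodazole release for mitosis), protein amounts in NP-40 versus SDS lysates quantified by mass spectrometry, three biological replicates.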
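Wherever solubility in G1/S (NP-40 vs SDS abundance) is given: HeLa Kyoto cells arrested at G1/S by double thymidine block, proteins quantified by TMT10plex mass spectrometry in mild NP-40 versus SDS extracts, three biological replicates.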
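Wherever thermal stability score vs G1/S (z-score of summed log2 fold changes over temperatures) is given: synchronized HeLa Kyoto cells, proteins quantified by TMT10plex mass spectrometry, three biological replicates, mitosis taken 0.5 h after nocodazole release, G1/S directly after double thymidine block.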

| Sequence | solubility in G1/S (log2) (HeLa Kyoto [1]) | melting temperature (HeLa Kyoto [2]; cell cycle stage: G1/S) | melting temperature (HeLa Kyoto [2]; cell cycle stage: mitosis) | solubility change mitosis (log2) (HeLa Kyoto [3]) | thermal stability score (HeLa Kyoto [4]; [5]) | thermal stability score (HeLa Kyoto [4]; cell cycle stage: mitosis) |
| --- | --- | --- | --- | --- | --- | --- |
| MASTSYDYCRVPMEDGDKRCKLLLGIGILVLLIIVILGVPLIIFTIKANSEACRDGLRAVMECRNVTHLLQQELTEAQKGFQDVEAQAATCNHTVMALMASLDAEKAQGQKKVEELEGEITTLNHKLQDASAEVERLRRENQVLSVRIADKKYYPSSQDSSSAAAPQLLIVLLGLSALLQ [BST2] | -0.713 | 57.4 °C | 56.4 °C | 0.237 | -4.66 | -5.14 |
| MASSSVPPATVSAATAGPGPGFGFASKTKKKHFVQQKVKVFRAADPLVGVFLWGVAHSINELSQVPPPVMLLPDDFKASSKIKVNNHLFHRENLPSHFKFKEYCPQVFRNLRDRFGIDDQDYLVSLTRNPPSESEGSDGRFLISYDRTLVIKEVSSEDIADMHSNLSNYHQYIVKCHGNTLLPQFLGMYRVSVDNEDSYMLVMRNMFSHRLPVHRKYDLKGSLVSREASDKEKVKELPTLKDMDFLNKNQKVYIGEEEKKIFLEKLKRDVEFLVQLKIMDYSLLLGIHDIIRGSEPEEEAPVREDESEVDGDCSLTGPPALVGSYGTSPEGIGGYIHSHRPLGPGEFESFIDVYAIRSAEGAPQKEVYFMGLIDILTQYDAKKKAAHAAKTVKHGAGAEISTVHPEQYAKRFLDFITNIFA [PIP4K2C] | 0.315 | 49 °C | 48.7 °C | -0.07 | 0.688 | 2 |
| MDEAGSSASGGGFRPGVDSLDEPPNSRIFLVISKYTPESVLRERFSPFGDIQDIWVVRDKHTKESKGIAFVKFARSSQACRAMEEMHGQCLGPNDTKPIKVFIAQSRSSGSHRDVEDEELTRIFVMIPKSYTEEDLREKFKVYGDIEYCSIIKNKVTGESKGLGYVRYLKPSQAAQAIENCDRSFRAILAEPKNKASESSEQDYYSNMRQEALGHEPRVNMFPFVGEQQSEFSSFDKNDSRGQEAISKRLSVVSRVPFTEEQLFSIFDIVPGLEYCEVQRDPYSNYGHGVVQYFNVASAIYAKYKLHGFQYPPGNRIGVSFIDDGSNATDLLRKMATQMVAAQLASMVWNNPSQQQFMQFGGSSGSQLPQIQTDVVLPSCKKKAPAETPVKERLFIVFNPHPLPLDVLEDIFCRFGNLIEVYLVSGKNVGYAKYADRISANDAIATLHGKILNGVRLKVMLADSPREESNKRQRTY [RBM45] | 0.000113 | 48.4 °C | 50 °C | 0.448 | 0.337 | 0.251 |
| MAAVAAVAARRRRSWASLVLAFLGVCLGITLAVDRSNFKTCEESSFCKRQRSIRPGLSPYRALLDSLQLGPDSLTVHLIHEVTKVLLVLELQGLQKNMTRFRIDELEPRRPRYRVPDVLVADPPIARLSVSGRDENSVELTMAEGPYKIILTARPFRLDLLEDRSLLLSVNARGLLEFEHQRAPRVSQGSKDPAEGDGAQPEETPRDGDKPEETQGKAEKDEPGAWEETFKTHSDSKPYGPMSVGLDFSLPGMEHVYGIPEHADNLRLKVTEGGEPYRLYNLDVFQYELYNPMALYGSVPVLLAHNPHRDLGIFWLNAAETWVDISSNTAGKTLFGKMMDYLQGSGETPQTDVRWMSETGIIDVFLLLGPSISDVFRQYASLTGTQALPPLFSLGYHQSRWNYRDEADVLEVDQGFDDHNLPCDVIWLDIEHADGKRYFTWDPSRFPQPRTMLERLASKRRKLVAIVDPHIKVDSGYRVHEELRNLGLYVKTRDGSDYEGWCWPGSAGYPDFTNPTMRAWWANMFSYDNYEGSAPNLFVWNDMNEPSVFNGPEVTMLKDAQHYGGWEHRDVHNIYGLYVHMATADGLRQRSGGMERPFVLARAFFAGSQRFGAVWTGDNTAEWDHLKISIPMCLSLGLVGLSFCGADVGGFFKNPEPELLVRWYQMGAYQPFFRAHAHLDTGRREPWLLPSQHNDIIRDALGQRYSLLPFWYTLLYQAHREGIPVMRPLWVQYPQDVTTFNIDDQYLLGDALLVHPVSDSGAHGVQVYLPGQGEVWYDIQSYQKHHGPQTLYLPVTLSSIPVFQRGGTIVPRWMRVRRSSECMKDDPITLFVALSPQGTAQGELFLDDGHTFNYQTRQEFLLRRFSFSGNTLVSSSADPEGHFETPIWIERVVIIGAGKPAAVVLQTKGSPESRLSFQHDPETSVLVLRKPGINVASDWSIHLR [GANAB] | -0.0187 | 53.6 °C | 54.2 °C | -0.155 | 3.69 | 5.36 |
| MDSVEKGAATSVSNPRGRPSRGRPPKLQRNSRGGQGRGVEKPPHLAALILARGGSKGIPLKNIKHLAGVPLIGWVLRAALDSGAFQSVWVSTDHDEIENVAKQFGAQVHRRSSEVSKDSSTSLDAIIEFLNYHNEVDIVGNIQATSPCLHPTDLQKVAEMIREEGYDSVFSVVRRHQFRWSEIQKGVREVTEPLNLNPAKRPRRQDWDGELYENGSFYFAKRHLIEMGYLQGGKMAYYEMRAEHSVDIDVDIDWPIAEQRVLRYGYFGKEKLKEIKLLVCNIDGCLTNGHIYVSGDQKEIISYDVKDAIGISLLKKSGIEVRLISERACSKQTLSSLKLDCKMEVSVSDKLAVVDEWRKEMGLCWKEVAYLGNEVSDEECLKRVGLSGAPADACSTAQKAVGYICKCNGGRGAIREFAEHICLLMEKVNNSCQK [CMAS] | -0.289 | 50.8 °C | 50 °C | 0.303 | -0.251 | -0.391 |
| MAEKVLVTGGAGYIGSHTVLELLEAGYLPVVIDNFHNAFRGGGSLPESLRRVQELTGRSVEFEEMDILDQGALQRLFKKYSFMAVIHFAGLKAVGESVQKPLDYYRVNLTGTIQLLEIMKAHGVKNLVFSSSATVYGNPQYLPLDEAHPTGGCTNPYGKSKFFIEEMIRDLCQADKTWNAVLLRYFNPTGAHASGCIGEDPQGIPNNLMPYVSQVAIGRREALNVFGNDYDTEDGTGVRDYIHVVDLAKGHIAALRKLKEQCGCRIYNLGTGTGYSVLQMVQAMEKASGKKIPYKVVARREGDVAACYANPSLAQEELGWTAALGLDRMCEDLWRWQKQNPSGFGTQA [GALE] | 0.453 | 53.3 °C | 53.8 °C | -0.146 | -3.9 | -0.458 |
| MARGGRGRRLGLALGLLLALVLAPRVLRAKPTVRKERVVRPDSELGERPPEDNQSFQYDHEAFLGKEDSKTFDQLTPDESKERLGKIVDRIDNDGDGFVTTEELKTWIKRVQKRYIFDNVAKVWKDYDRDKDDKISWEEYKQATYGYYLGNPAEFHDSSDHHTFKKMLPRDERRFKAADLNGDLTATREEFTAFLHPEEFEHMKEIVVLETLEDIDKNGDGFVDQDEYIADMFSHEENGPEPDWVLSEREQFNEFRDLNKDGKLDKDEIRHWILPQDYDHAQAEARHLVYESDKNKDEKLTKEEILENWNMFVGSQATNYGEDLTKNHDEL [RCN1] | 0.419 | 55 °C | 56.4 °C | 0.0254 | 1.52 | 1.33 |
| MSAPLDAALHALQEEQARLKMRLWDLQQLRKELGDSPKDKVPFSVPKIPLVFRGHTQQDPEVPKSLVSNLRIHCPLLAGSALITFDDPKVAEQVLQQKEHTINMEECRLRVQVQPLELPMVTTIQMSSQLSGRRVLVTGFPASLRLSEEELLDKLEIFFGKTRNGGGDVDVRELLPGSVMLGFARDGVAQRLCQIGQFTVPLGGQQVPLRVSPYVNGEIQKAEIRSQPVPRSVLVLNIPDILDGPELHDVLEIHFQKPTRGGGEVEALTVVPQGQQGLAVFTSESG [IFI35] | 0.654 | 54.6 °C | 55.2 °C | -0.0643 | -1.43 | -2.41 |
| MATPAGLERWVQDELHSVLGLSERHVAQFLIGTAQRCTSAEEFVQRLRDTDTLDLSGPARDFALRLWNKVPRKAVVEKPARAAEREARALLEKNRSYRLLEDSEESSEETVSRAGSSLQKKRKKRKHLRKKREEEEEEEASEKGKKKTGGSKQQTEKPESEDEWERTERERLQDLEERDAFAERVRQRDKDRTRNVLERSDKKAYEEAQKRLKMAEEDRKAMVPELRKKSRREYLAKREREKLEDLEAELADEEFLFGDVELSRHERQELKYKRRVRDLAREYRAAGEQEKLEATNRYHMPKETRGQPARAVDLVEEESGAPGEEQRRWEEARLGAASLKFGARDAASQEPKYQLVLEEEETIEFVRATQLQGDEEPSAPPTSTQAQQKESIQAVRRSLPVFPFREELLAAIANHQVLIIEGETGSGKTTQIPQYLFEEGYTNKGMKIACTQPRRVAAMSVAARVAREMGVKLGNEVGYSIRFEDCTSERTVLRYMTDGMLLREFLSEPDLASYSVVMVDEAHERTLHTDILFGLIKDVARFRPELKVLVASATMDTARFSTFFDDAPVFRIPGRRFPVDIFYTKAPEADYLEACVVSVLQIHVTQPPGDILVFLTGQEEIEAACEMLQDRCRRLGSKIRELLVLPIYANLPSDMQARIFQPTPPGARKVVVATNIAETSLTIEGIIYVLDPGFCKQKSYNPRTGMESLTVTPCSKASANQRAGRAGRVAAGKCFRLYTAWAYQHELEETTVPEIQRTSLGNVVLLLKSLGIHDLMHFDFLDPPPYETLLLALEQLYALGALNHLGELTTSGRKMAELPVDPMLSKMILASEKYSCSEEILTVAAMLSVNNSIFYRPKDKVVHADNARVNFFLPGGDHLVLLNVYTQWAESGYSSQWCYENFVQFRSMRRARDVREQLEGLLERVEVGLSSCQGDYIRVRKAITAGYFYHTARLTRSGYRTVKQQQTVFIHPNSSLFEQQPRWLLYHELVLTTKEFMRQVLEIESSWLLEVAPHYYKAKELEDPHAKKMPKKIGKTREELG [DHX16] | -0.394 | 49.9 °C | 50.8 °C | 0.00704 | 1.68 | 2.22 |
| MVKLDIHTLAHHLKQERLYVNSEKQLIQRLNADVLKTAEKLYRTAWIAKQQRINLDRLIITSAEASPAECCQHAKILEDTQFVDGYKQLGFQETAYGEFLSRLRENPRLIASSLVAGEKLNQENTQSVIYTVFTSLYGNCIMQEDESYLLQVLRYLIEFELKESDNPRRLLRRGTCAFSILFKLFSEGLFSAKLFLTATLHEPIMQLLVEDEDHLETDPNKLIERFSPSQQEKLFGEKGSDRFRQKVQEMVESNEAKLVALVNKFIGYLKQNTYCFPHSLRWIVSQMYKTLSCVDRLEVGEVRAMCTDLLLACFICPAVVNPEQYGIISDAPINEVARFNLMQVGRLLQQLAMTGSEEGDPRTKSSLGKFDKSCVAAFLDVVIGGRAVETPPLSSVNLLEGLSRTVVYITYSQLITLVNFMKSVMSGDQLREDRMALDNLLANLPPAKPGKSSSLEMTPYNTPQLSPATTPANKKNRLPIATRSRSRTNMLMDLHMDHEGSSQETIQEVQPEEVLVISLGTGPQLTPGMMSENEVLNMQLSDGGQGDVPVDENKLHGKPDKTLRFSLCSDNLEGISEGPSNRSNSVSSLDLEGESVSELGAGPSGSNGVEALQLLEHEQATTQDNLDDKLRKFEIRDMMGLTDDRDISETVSETWSTDVLGSDFDPNIDEDRLQEIAGAAAENMLGSLLCLPGSGSVLLDPCTGSTISETTSEAWSVEVLPSDSEAPDLKQEERLQELESCSGLGSTSDDTDVREVSSRPSTPGLSVVSGISATSEDIPNKIEDLRSECSSDFGGKDSVTSPDMDEITHGAHQLTSPPSQSESLLAMFDPLSSHEGASAVVRPKVHYARPSHPPPDPPILEGAVGGNEARLPNFGSHVLTPAEMEAFKQRHSYPERLVRSRSSDIVSSVRRPMSDPSWNRRPGNEERELPPAAAIGATSLVAAPHSSSSSPSKDSSRGETEERKDSDDEKSDRNRPWWRKRFVSAMPKAPIPFRKKEKQEKDKDDLGPDRFSTLTDDPSPRLSAQAQVAEDILDKYRNAIKRTSPSDGAMANYESTGDNHDRDLSSKLLYHSDKEVMGDGESAHDSPRDEALQNISADDLPDSASQAAHPQDSAFSYRDAKKKLRLALCSADSVAFPVLTHSTRNGLPDHTDPEDNEIVCFLKVQIAEAINLQDKNLMAQLQETMRCVCRFDNRTCRKLLASIAEDYRKRAPYIAYLTRCRQGLQTTQAHLERLLQRVLRDKEVANRYFTTVCVRLLLESKEKKIREFIQDFQKLTAADDKTAQVEDFLQFLYGAMAQDVIWQNASEEQLQDAQLAIERSVMNRIFKLAFYPNQDGDILRDQVLHEHIQRLSKVVTANHRALQIPEVYLREAPWPSAQSEIRTISAYKTPRDKVQCILRMCSTIMNLLSLANEDSVPGADDFVPVLVFVLIKANPPCLLSTVQYISSFYASCLSGEESYWWMQFTAAVEFIKTIDDRK [GAPVD1] | -0.136 | 49.5 °C | 49.8 °C | -0.131 | 1.88 | 3.33 |
